In patent publication US20260167733A1 (CLEVELAND CLINIC FOUNDATION, published 2026):

Biological target: T1, human AMHR2 on AMHR2-OVCAR8 cells (human, UniProt Q16671 18-573)
T1 construct: whole, on cells; Also the target in IHC of human HGSOC tumour tissue sections; also called AMHR2-ED on human EOC cells; anti-Mullerian hormone receptor type II
T1 sequence (looked up): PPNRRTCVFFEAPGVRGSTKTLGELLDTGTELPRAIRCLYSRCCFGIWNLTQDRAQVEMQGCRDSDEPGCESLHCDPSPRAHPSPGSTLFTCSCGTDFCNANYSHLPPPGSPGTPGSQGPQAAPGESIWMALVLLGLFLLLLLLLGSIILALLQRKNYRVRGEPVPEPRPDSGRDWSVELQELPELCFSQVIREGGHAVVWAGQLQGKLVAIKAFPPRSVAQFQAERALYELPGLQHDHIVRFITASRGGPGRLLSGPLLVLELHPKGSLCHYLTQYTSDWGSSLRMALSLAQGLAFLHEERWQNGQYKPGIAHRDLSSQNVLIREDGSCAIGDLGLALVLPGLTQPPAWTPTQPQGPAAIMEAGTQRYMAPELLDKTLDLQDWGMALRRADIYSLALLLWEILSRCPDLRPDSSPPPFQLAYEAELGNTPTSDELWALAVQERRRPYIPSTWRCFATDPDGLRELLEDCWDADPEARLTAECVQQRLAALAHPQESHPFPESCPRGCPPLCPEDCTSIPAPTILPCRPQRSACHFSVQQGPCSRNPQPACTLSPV
Test: flow cytometry on AMHR2-OVCAR8 cells
Description: The human AMHR2-OVCAR8 cells expressing high levels of human AMHR2 were treated with Fc-receptor block (BD Biosciences, San Jose, CA) and immunostained with 5 μg of a human isotype control IgG1 mAb as well as with 5 μg of the chimeric 4D12G1 mAb and variants 5 and 6 of the humanized 4D12G1 mAb. Cells were then treated with FITC-labeled goat anti-human IgG (BD Biosciences) and analyzed by flow cytometry using a FACSAria II flow cytometer and BDFacsDiva software (BD Biosciences). […] Insets show darkly staining regions of AMHR2-ED expression which occurs primarily in the parenchyma, with some staining also visible in the stroma.

B1: Anti-AMHR2-ED 4D12G1 Chimeric antibody (antibody, human IgG1, kappa, V domains shown)
VH: DVKLVESGGGLVKLGGSLKLSCAASGFTFSRYFMSWVRQTPEKRLELVAAINSDGGRTYYPDTVKGRFTISRDNAKNTLYLQMSSLKSEDTALYYCTRHIYSYYEDYFDYWGQGTTLTVSS
VL: DVVMTQTPLSLPVSLGDQASISCRSSQSLVHSNGNTYLHWYLQKPGQSPKLLIYKVSKRFSGVPDRFSGSGSGTDFTLKISRVEAEDLGVYFCSQSTHVYTFGGGTKLEIKR
notes: also called chimeric 4D12G1 mAb; Chimeric 4D12G1
B1: binds.

B2: Anti-AMHR2-ED 4D12G1 Variant 5 antibody (antibody, human IgG1, kappa)
heavy: not shown
light: DVVMTQTPLSSPVTLGQPASISCRSSQSLVHSNGNTYLHWYQQRPGQPPKLLIYKVSKRFSGVPDRFSGSGSGTDFTLKISRVEAEDVGVYFCSQSTHVYTFGQGTKLEIKRTVAAPSVFIFPPSDEQLKSGTASVVCLLNNFYPREAKVQWKVDNALQSGNSQESVTEQDSKDSTYSLSSTLTLSKADYEKHKVYACEVTHQGLSSPVTKSFNRGEC
notes: Humanized variant of 4D12G1; also called humanized 4D12G1 variant 5 mAb; 4D12G1 variant 5 mAb
B2: binds.

B3: Anti-AMHR2-ED 4D12G1 Variant 6 antibody (antibody, human IgG1, kappa)
heavy: not shown
light: B2 light
notes: Humanized variant of 4D12G1; also called humanized 4D12G1 variant 6 mAb; Hu4D12G1-6
B3: binds.
